Anti-tumor effect data for one molecule are collected here from US20250066503A1, “CELL INJURY INDUCING THERAPEUTIC DRUG FOR USE IN CANCER THERAPY” (CHUGAI SEIYAKU KABUSHIKI KAISHA, priority 2016, published 2025).

In this experiment the test system is PC-10 xenograft tumor. The experiment can be described thus: In vivo drug efficacy, NOD scid/T cell-injected model, PC-10. Also on record: species or system NOD scid mice. The note with it: 1 mg/kg once through the tail vein, compared to the vehicle-administered group. As to the method:
Methods called an NOD scid/T cell-injected model, a humanized NOG mouse model, and a human CD3εδγ gene-modified mouse model were used in the in vivo drug efficacy evaluation. Assay using an NOD scid/T cell-injected model was performed as follows. […] T cells expanded by culturing human PBMCs in vitro were injected into the NOD scid mice with confirmed tumor establishment. The mice were treated by administering bispecific antibody-38 and bispecific antibody-30, -31, -32, or -33. Assay using a humanized NOG mouse model was performed as follows. CD34-positive hematopoietic stem cells derived from umbilical cord blood were transplanted into NOG mice by tail vein injection. Human T cells are constantly supplied in the mice, which are called humanized NOG mice. The PC-10 cell line was transplanted into humanized NOG mice. The humanized NOG mice with confirmed establishment of PC-10 tumor were treated by administering antibody-38. Assay using a human CD3εδγ gene-modified mouse model was performed as follows. Cells of mouse-derived cell line forced to express human GPC3 were transplanted into a human CD3εδγ gene-modified mouse model, which had been prepared according to Reference Example 10. The human CD3εδγ gene-modified mice with confirmed tumor establishment were treated by administering antibody-38. […]

B1: antibody-39: bispecific antibody; CD3-binding variable region SEQ ID NO: 433, GPC-binding SEQ ID NO: 434, common L chain SEQ ID NO: 435 (antibody)
heavy 1: QVQLVQSGAEVKKPGASVKVSCKASGYTFTDYEMHWIRQPPGQGLEWIGAIDPKTGDTAYSQKFKGRVTLTADKSTSTAYMELSSLTSEDTAVYYCTRFYSYTYWGQGTLVTVSS
heavy 2: EVQLVETGGSLVQPGKSLKLTCATSGFTFSNAWMHWVRQSPEKQLEWVAQIKAKSNNYATYYAESVKGRFTISRDDSKSNIYLQMNSLKEEDTAVYYCRYVHYGAYYGVDAWGQGTSVTVSS
light: DIVMTQSPLSLPVTPGEPASISCRSSQSLVHSNRNTYLHWYQQKPGQAPRLLIYKVSNRFSGVPDRFSGSGSGTDFTLKISRVEAEDVGVYYCGQGTQVPYTFGQGTKLEIK
modifications: An artificially generated sequence
Consider B1, for which the anti-tumor effect entry is “evident anti-tumor effect”.
